± gives the standard deviation of the averaged measurements.
B1: library; a variant is named by its letters at N, in order (parent)
chain: GCUGUCACCGGUGUAUUACCCUAGUGGUCGACCGGUCUGAUGAGUCUNNNNNNAGACGAAACAGC

Assays:
hypoxanthine [1] = variants of: B1; test: FACS-Seq fitted mean relative fluorescence mCherry/BFP without ligand (log10 relative fluorescence); ligand: hypoxanthine (xanthine aptamer); higher = higher reporter protein expression; conditions: HEK293T, ligand present: no
Summary of the method: (§1)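 After lentiviral transduction, HEK293T library cells bearing an mCherry ribozyme-switch reporter and an EF1α-BFP marker were enriched. They were then held for 48 h with or without ligand and sorted by mCherry/BFP into 6 bins, and each bin's genomic DNA was PCR-amplified, barcoded and MiSeq-sequenced. Fluorescence is expressed as a normalized fitted mean: the normal mean of log10(mCherry/BFP) bin counts, scaled to five spiked-in control ribozymes.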

hypoxanthine [2] = variants of: B1; test: normalized RNA/DNA level with ligand (relative to sTRSVctl = 100) (log10 (% of sTRSVctl)); ligand: hypoxanthine (xanthine aptamer); higher = less ribozyme self-cleavage, higher mRNA level; conditions: ligand concentration (+) RNA-Seq: 5 mM, HEK293T, reporter: mCherry (pCS4076), ligand present: yes
Summary of the method: (§2)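 Ribozyme switch library plasmids linked to reporters were introduced into HEK293T cells at 4 µg per 6-well well, with ligand, if any, added 1 h before. Total RNA was extracted with EDTA 72 h later, reverse-transcribed, amplified, barcoded and sequenced. RNA level was computed from RNA over DNA reads relative to a spiked-in non-cleaving sequence or the top sequences, then scaled and log-transformed. The top set was 25 sequences, values were ×100 and log10, and the cutoff was ≥100 DNA reads.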

hypoxanthine [3] = variants of: B1; test: normalized RNA/DNA level without ligand (relative to sTRSVctl = 100) (log10 (% of sTRSVctl)); ligand: hypoxanthine (xanthine aptamer); higher = less ribozyme self-cleavage, higher mRNA level; conditions: HEK293T, reporter: mCherry (pCS4076), ligand present: no
Summary of the method: as §2

hypoxanthine [4] = variants of: B1; test: FACS-Seq fitted mean relative fluorescence mCherry/BFP with ligand (log10 relative fluorescence); ligand: hypoxanthine (xanthine aptamer); ligand concentration (+) FACS-Seq: 5 mM; higher = higher reporter protein expression; conditions: HEK293T, ligand present: yes
Summary of the method: as §1

Variant	FACS-Seq fitted mean (log10) (hypoxanthine [1])	normalized RNA/DNA level with ligand (log10) (hypoxanthine [2])	normalized RNA/DNA level without ligand (log10) (hypoxanthine [3])	FACS-Seq fitted mean (log10) (hypoxanthine [4])
ACUCAU	0.604 ± 0.014	1.95 ± 0.042	1.84 ± 0.026	0.7156 ± 0.0036
ACUCCC	-0.354 ± 0.031	1.96 ± 0.06	1.924 ± 0.019	-0.746 ± 0.075
ACUCCG	0.262 ± 0.039	1.895 ± 0.0092	1.44 ± 0.026	0.615 ± 0.02
CCUCGA	0.268 ± 0.026	2 ± 0.011	1.87 ± 0.044	0.314 ± 0.059
GCUCGA	0.14 ± 0.0058	1.92 ± 0.02	1.67 ± 0.088	0.526 ± 0.025
ACUCGA	0.714 ± 0.029	1.958 ± 0.017	1.74 ± 0.043	0.665 ± 0.029
GCUCGG	0.247 ± 0.027	1.88 ± 0.074	1.4 ± 0.022	0.851 ± 0.056
ACUCGG	0.949 ± 0.075	1.87 ± 0.042	1.44 ± 0.12	0.651 ± 0.2
UCUCUA	0.399 ± 0.023	1.94 ± 0.058	1.743 ± 0.0054	0.493 ± 0.055
ACUCUA	0.438 ± 0.061	1.947 ± 0.0039	1.86 ± 0.055	0.585 ± 0.062
GCUCUG	0.3 ± 0.0076	1.89 ± 0.045	1.32 ± 0.05	0.685 ± 0.024
UCUCUG	0.0437 ± 0.023	1.77 ± 0.022	1.3 ± 0.032	0.522 ± 0.028
ACUCUG	0.335 ± 0.0076	1.89 ± 0.054	1.516 ± 0.0021	0.677 ± 0.02
ACUCUU	0.342 ± 0.07	1.95 ± 0.029	1.84 ± 0.056	0.517 ± 0.056
GCUGAA	0.332 ± 0.011	1.91 ± 0.032	1.76 ± 0.038	0.43 ± 0.092
UCUGAA	0.338 ± 0.025	1.951 ± 0.0066	1.68 ± 0.04	0.512 ± 0.022
ACUGAA	0.038 ± 0.062	1.92 ± 0.079	1.737 ± 0.0053	0.0938 ± 0.16
ACUGAC	0.249 ± 0.034	1.95 ± 0.11	1.835 ± 0.014	0.347 ± 0.1

Variant	FACS-Seq fitted mean (log10) (hypoxanthine [1])	normalized RNA/DNA level with ligand (log10) (hypoxanthine [2])	normalized RNA/DNA level without ligand (log10) (hypoxanthine [3])	FACS-Seq fitted mean (log10) (hypoxanthine [4])
CCUGAG	0.635 ± 0.045	1.918 ± 0.014	1.653 ± 0.0099	0.706 ± 0.046
ACUGAG	0.241 ± 0.019	1.818 ± 0.015	1.37 ± 0.04	0.673 ± 0.028
GCUGAU	0.294 ± 0.021	1.97 ± 0.029	1.776 ± 0.014	0.376 ± 0.054
ACUGAU	0.247 ± 0.08	1.92 ± 0.053	1.67 ± 0.026	0.431 ± 0.058
ACUGCA	0.637 ± 0.031	1.96 ± 0.028	1.83 ± 0.074	0.478 ± 0.012
CCUGCG	-0.205 ± 0.019	1.98 ± 0.015	1.86 ± 0.0037	-0.2206 ± 0.00099
GCUGCG	0.192 ± 0.0063	1.92 ± 0.057	1.6 ± 0.023	0.503 ± 0.0077
ACUGCG	0.125 ± 0.0038	1.92 ± 0.03	1.458 ± 0.013	0.557 ± 0.019
UCUGGA	0.147 ± 0.0055	1.85 ± 0.043	1.6 ± 0.031	0.462 ± 0.029
ACUGGA	0.309 ± 0.0042	1.952 ± 0.017	1.71 ± 0.03	0.587 ± 0.064
GCUGGC	0.495 ± 0.075	1.85 ± 0.12	1.78 ± 0.038	0.468 ± 0.018
UCUGGC	0.393 ± 0.029	1.94 ± 0.0059	1.87 ± 0.044	0.508 ± 0.055
GCUGGG	0.121 ± 0.13	1.94 ± 0.0053	1.55 ± 0.083	0.547 ± 0.091
UCUGGG	0.132 ± 0.074	1.97 ± 0.055	1.8 ± 0.04	0.368 ± 0.054
ACUGGU	0.0934 ± 0.044	1.926 ± 0.0036	1.65 ± 0.06	0.1 ± 0.11
CCUGUA	0.473 ± 0.019	1.892 ± 0.015	1.89 ± 0.041	0.515 ± 0.006
CCUGUG	0.676 ± 0.039	1.97 ± 0.026	1.86 ± 0.051	0.685 ± 0.086
GCUGUG	0.345 ± 0.079	1.93 ± 0.025	1.76 ± 0.022	0.539 ± 0.081
